According to the nanobody polyreactivity screen of Harvey et al. (2022):

Assay: yeast display, Sf9 membrane polyspecificity reagent, FACS + sequencing; frameworks hold sequencing errors
In short: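 Polyreactivity labels are assigned by the sorting gate from which each nanobody was recovered. The gates were low and high (top ~1%), set on anti-HA fluorescence for expression and streptavidin fluorescence for reagent binding. Before sorting, galactose-induced (36–48 hours) yeast display cells were stained for 1 hour at 4 °C with 10% biotinylated, detergent-solubilized Sf9 membrane reagent.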

Sequence | polyreactivity (PSR sort gate)
QVQLVESGGRLVQAGGSLRLSCAASGRTFGWYAMGWYRQAPGKERELVAAINRRVGRTYYADSVKGRFTISRDNAKNTVYLQMNSLIPEDTAVYYCAVKQGFYSRALKLYYWGQGTQVTVSS | high polyreactivity
QVQLVESGGRLVQAGGSLRLSCAASGRTFSNAIGWDRQAPGKEREEVADISSGGSTNYADSVKGRFTISRDNAKNTVYLQMNSLKPEDTAVYYCAAVSGSLYGYSDDYWGQGTQVTVSS | low polyreactivity
QVQLVESGGRLVQAGGSLRLSCAASGRTFVYNAMGWYRQAPGKESELVAAISSGGGTNYADSVKGRFTISRDNAKNTVYLQMNSLKPEDTAVYYCAAGFDGSRHPGFDSWGQGTQVTVSS | low polyreactivity
QVQLVESGGRLVQAGGSLRLSCAASGSIFFLYAKGWYRQAPGKERELVAAISGGGGSTYYADSVKGRFTISRDIAKYTVYLLMNSLKPEDTAVYYCAALSKTRGGFWGQGTQVTVSS | high polyreactivity
QVQLVESGGRLVQAGGSLRLSCAASGSIFNAYAMGWYRQAPGKEREFVAVITSNGGITYYADSVKGRFTISRDNAKNTVYLQMNSLKPEDTAVYYCAAYEIYYEFDSWGQGTQVTVSS | low polyreactivity
QVQLVESGGRLVQAGGSLRLSCAASGSIFQYYARGWYRQAPGKVREFVSAITSDGSSTYYADSVKGRFTISRDNAKNTVYLQMKSLKPEDTAVYYCAAGWVGYRRPSMYYWGQVTQVTVSS | high polyreactivity
QVQLVESGGRLVQAGGSLRLSCAASGSTFDENAMGWYRQAPGKERELVAAISRRGVSTYYADSVKGRFTISRDNEKNTVYLQMNSVKPEDTAVYYCARRYGGVGMYYWGQGTQVTVSS | high polyreactivity
QVQLVESGGRLVQAGGSLRLSCAASGSTFGRYTMGWYRQAPGKERELVTAITSSGDSTYYADSVKGRFTISRDNAKNTVYLQMNSLKPEDTAVYDCAADYADLNDYWGQGTQVTVSS | low polyreactivity
QVQLVESGGRLVQAGGSLRLSCAASGSTFGWYAMAWYRPAPGKERELVAAIRSNGGSTYYADSVKGRFTISRDNAKNTVYLQMNSLKPEDTAVYYCAARGSPSKHHWYDYWGQGTQVTVSS | low polyreactivity
QVQLVESGGRLVQAGGSLRLSCAASGSTFTKYALGWYRPAPGKERELVAAISRSGGSTYYADSVKGRFSISRDNAKNTVYLQMNSLKPEDTAVYYCAARDSSRNYFGDGARDYWGQCTQVTVSS | high polyreactivity
QVQLVESGGRLVQAGGSLRLSCAASGSTFVQNAMGWYRQATGKERELVAAISKSGGRTYYADSVKGRFTISRDNAKNTVYLQMNSLKPEDTAVYYCAAVTVASPTRMDYWGQGTQVTVSS | high polyreactivity
QVQLVESGGRLVQAGGSLRLSCAASGSTFYRNAMGWYRQAPGKERELVASINNGGSTYYADSVKGRFTISRDNAKNTVYLQMNSLKPEDTAVYYCAATESWDYDYWGQGTQVTVSS | low polyreactivity
QVQLVESGGRLVQAGGSLRLSCAASGSTIAYNAMGWYIQAPGKERELVAANSKGGGSTYYADSVKGRFTISRDNAQNTVYLAMNSLKPAETAVYYCAAVSGYSTGGSRYRYNYWGQGTQVTVSS | high polyreactivity
QVQLVESGGRLVQAGGSLRLSCAASGSTITPNSMGWYRQAPGKERELVAAITTGGSTKYADSVKGRFTISRDNAKKTVYLQLTSLNPADTAVYYCNTDRGAYFYVIWPPWTYDWGQGTQVTVTS | low polyreactivity
QVQLVESGGRLVQAGGSLRLSCAASGSTLYAYAMGWYRPAPGKERELVAAIRTGGSTYYADSVNGRFTISRDNAKNTVYLQMNSLKPEDTAVYYCAADHGYQYGYWGQGTQVTVSS | low polyreactivity
QVQLVESGGRLVQAGGSLRLSCAASGYTYDRYAMGWYRQAPGKERQLVAAISSSGTSTYYADSVKGRFTISRDNEKNTVYLQMNSLKPEDTAVYYCAATRLKLKFAYWGQGTQVTVSS | high polyreactivity
QVQLVESGGRLVQAGGSLRLSCAPSGFIFGDNGIGGSRQSPGKEMELVAGINRRSGTYYADSVKGRFTISRDNAKNTVYLLMNSLKREDTAVYYCAARLDAYQSGRYYYWGQGTQVTLSS | high polyreactivity
QVQLVESGGRLVQAGGSLRLSCAPSGFMFADYMGWYRQAPGKERALVASISSTGSSTYADSVKGRFTITRDNAKNTVYLPMNSLKPEDTAVYDCAATGVWYSSNDYASEYDYWGQGTQVTVSS | high polyreactivity
QVQLVESGGRLVQAGGSLRLSCAPSGSIFWGYAMGWYRQAPGKERELVAVISRGGSTYYADSVKGRFTISRDNAKNTVYLKMNSLKPEDTAVYYCAASSSWFYSPEYDYWGQGTQVTVSS | low polyreactivity
QVQLVESGGRLVQAGGSLRLSCASSGRTFYPYVMGWYRQAPGKERELVAAISSGTSTYYADSVKGRFTISRDNAKNTVYLQMNSLKPEDTAVYYCAVRVYTYVLYDFWGQGTQVTVSS | high polyreactivity
QVQLVESGGRLVQAGGSLRLSCSASGLTFQYYAMGWYRQAPGKERELVATINSGGSTKYADSVKGRFTISRDNAKNTVYLQMNRLKPEDTAVYYCAADPYRRYRRPSRYGYWGQGTQVTVSS | high polyreactivity
QVQLVESGGRLVQAGGSLRLSGAASVLTFNFNAMGWYRQAPGKERELVAANSYRAGSTYYADSVKGRFTISRDNAKNTVYLQMNSLKPEDTAVYYCAKPTYRFYWGDFDYWGQGTQVTVSS | low polyreactivity

Sequence | polyreactivity (PSR sort gate)
QVQLVESGGRLVQAGGSLRLTCAASGFIFKTNGMRWYRKAPGKERELVAAITSRGGSTYYADSVKGRFTISRDNAKNNVYLQMNSLKPEDTAVYYCAARGSRYTDYDYWGQGTHVTVSS | high polyreactivity
QVQLVESGGRLVQAGGSLRLTCAASGSTIYQYVMRWYRQAPGKERELVAVITWSGGRTYYADSVKGRFTISRDNAKNTVYLQMNSLKPEDTAGYYCAADPLSGYDYWGQGTHVTVSS | low polyreactivity
QVQLVESGGRLVQAGGSLSLSCAASGSIFYRNAMGWYSQAPAKEWEFVAVITSSGTSTYYADSVKGRFTISRDNEKNTVSFQMKSLKPEDTAVYYCAADESSPSRGDYWGQGTQVSVSS | low polyreactivity
QVQLVESGGRLVQAGGTLRLSCAASGRIFGYNAMGWYRQAPGKERHLVAVITSGGSKNYADSVKGRFTISRDNAKHTVYLQMNSVKPEDTAVYYCPRRIWDRWSYPVRVRYYYWGQGTQVTGSS | high polyreactivity
QVQLVESGGRLVQAGRSLRLSCAASGGTFQRYVMGWYRQAPGKERELVAAISRSGSTYADSVKGRFTISRDNAKNTGYLQMNSLKPEDTAVYYCNVVRYYRYYLHGYDYWGQGTQVTVSS | high polyreactivity
QVQLVESGGRLVQAGRSLRLSCAASGINFYGYAMGWYRQAPGKERELVAAITSYDGSTYYADSVKGRFTISRDNAKNTVYLQMNSLKPEDTAVYYCAAYRYGSRGGYWGQGTQVTVSS | high polyreactivity
QVQLVESGGRLVQPGGSLSLSCADSGNIFYWNTMGWYRQAPGKERELVATISWSGRTTYYADSVKGRFTISRDNEKNTVYLQMNSLKPEDTAVYYCAADVTSGVYSFSFDYLGQGTQVTVSS | low polyreactivity
QVQLVESGGRVLQAGGSLRLSCAASGRIFSYNDMGWYRQAPGKERELVATITSGDSTISADSVKGRFTISRDNAKNTVYLQMNSLKPEDTAVYYCATDIYGLPVDYWGQGTQVTVSS | low polyreactivity
QVQLVESGGSLVQAGGSLRLSCAASGRIFITNAMGAYRQAPGKERELVAAIRRRGGNTYYADSVKGRFTISRDNAKNTVYLQMNSLKPEDTAVYYCAVYPRPYKYNYWGQGTQVTVSS | high polyreactivity
QVQLVESGGSLVQAGGSLRLSCDASGRTFGTNAMGWYRQAPRKETELVAAISWRGTSTYYADSVKGRFTNSRDNAKNTVYLQMNSLKPEDTAVYYCAARGYRADQWEYDYWGQGTQVTVSS | low polyreactivity
QVQLVESGGSLVQAGGSLRLSCDASVLTFPVYAMGWYRQAPGKEREFVASISGRGASTYYADSVKGRFTISRDNAKNTVYLQMNSLIPEDTAVYYCNADVWLLSYFPEYDYWGQGNQVTVSS | low polyreactivity
QVQLVESGGVIVQAGGSLRLSCAATGSNFWSYAMGSSRPAPGKERELVASITRSGGSTYYADSVKGRFTISRDNAKNTVYSQMNSLKPEDTAVYYCNARRTTRWGSSKYEYDYWGQGTQVTVSS | high polyreactivity
QVQLVESGGVLDQAGGSLGLSCAASGRTLRKYAMGWYRQAPGKERELVAAITWTGGTTYYADSVKGRFTISRDNAKNTVYLQMNTLKPEDTAFYFCGTVRRYGYGYDYWGQGTQVTVSS | high polyreactivity
QVQLVESGGVLVQAGGSLLLSCAASGFTFGCYGMGWYRQARGKERELGAAITKSGGRTYYADSVKGRFTISRDNAKNTVYLQMNSLLREDTAVYYCAASSQGDGGYWGQGSQVTVSS | high polyreactivity
QVQLVESGGVLVQAGGSLRITCAASGHIFFYDTMGWYRQAPGKERELVAGITIGGSTNYADSVKGRFTISRDNAKNTVSLQMNSLKPEDTAVYFCNVVKYVYIYSYWEYYYWGQCTQVTVSS | low polyreactivity
QVQLVESGGVLVQAGGSLRLICAASGSIFNRYAMGWYRHAPGKDRELVAAISRSGGRTYYADSVKGRFTISRDNAKNTVYLQMNSLKPEDTAVYYCAADKYYRQHEYDYWGQGTQVTVSS | high polyreactivity
QVQLVESGGVLVQAGGSLRLICAASVFTFYSYAIGWYRQATGTERELVAGISRSGGSTYYADSVKGRFTISRDNAKNTVYLHMNRLKPEDTAVYYCNVRLRKKIQNSKYDYWGQGTQVSVSS | high polyreactivity
QVQLVESGGVLVQAGGSLRLSCAASGFTFSLYGMGWYRQAPGKEREFVAAIRSGGSTNYADSVKGRFTISRDNAKNTVYLQMNRLKPEDTAVYYCATDIHSVHNNRDKHDYDYWGQGTQVTVSS | low polyreactivity
QVQLVESGGVLVQAGGSLRLSCAASGGIFQGNVMGWYRQAPGKERELVASIRRGGSTNYADSVKGPFTISRDNAKNTVYLQMNSLKPEDTAVYYCNAAFYKEYYYWGQGTQVTVSS | low polyreactivity
QVQLVESGGVLVQAGGSLRLSCAASGITLTANAMGWYRQAPGKERELVAAISRGGSKYYADSVKGRFTISRDNAKNPGYLQMNSLKPEDTAVYYCNKAGGYWYAKRDYDYWGQVTQVTVSS | high polyreactivity
QVQLVESGGVLVQAGGSLRLSCAASGLDYYAIGWYRQAPGKERELVAAIDWSGVSTYYADSVKGRFTISRDNAKNTVYLQMNSLKPEDTAVDYCAALYYGWPRVSYGLGEYGYWGQGTQVTVSS | low polyreactivity
